Measured values published in patent publication US20140336126A1.

molecular target: GS-TAP-tagged Optn (human) (UniProt Q96CV9); experiment: TAP of GS-tagged Optn from HEK-293 cells, LC-MSMS
Sequence (Q96CV9 whole entry E322K): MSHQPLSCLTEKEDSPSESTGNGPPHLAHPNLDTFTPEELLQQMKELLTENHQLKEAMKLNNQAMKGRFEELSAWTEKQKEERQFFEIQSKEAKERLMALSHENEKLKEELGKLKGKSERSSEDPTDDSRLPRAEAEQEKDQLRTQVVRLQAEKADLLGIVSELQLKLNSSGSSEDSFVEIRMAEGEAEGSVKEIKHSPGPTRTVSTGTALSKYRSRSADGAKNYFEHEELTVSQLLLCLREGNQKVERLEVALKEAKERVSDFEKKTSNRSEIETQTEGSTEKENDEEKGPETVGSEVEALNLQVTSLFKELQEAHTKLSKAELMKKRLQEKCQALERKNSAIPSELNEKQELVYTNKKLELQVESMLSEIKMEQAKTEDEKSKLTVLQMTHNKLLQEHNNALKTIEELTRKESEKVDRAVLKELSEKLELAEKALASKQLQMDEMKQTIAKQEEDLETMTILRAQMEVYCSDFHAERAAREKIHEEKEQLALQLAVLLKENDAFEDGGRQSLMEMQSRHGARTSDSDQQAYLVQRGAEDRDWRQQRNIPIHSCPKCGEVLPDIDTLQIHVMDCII

Sequence of MYOSIN, LIGHT CHAIN 6, ALKALI, SMOOTH MUSCLE AND NON-MUSCLE ISOFORM 1. (P60660 2-151): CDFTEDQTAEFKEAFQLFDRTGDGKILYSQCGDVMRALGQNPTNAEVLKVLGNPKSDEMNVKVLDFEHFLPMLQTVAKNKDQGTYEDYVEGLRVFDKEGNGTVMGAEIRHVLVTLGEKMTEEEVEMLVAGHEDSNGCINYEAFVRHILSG
Sequence of [..] LIGHT CHAIN 2, [..]. (Q96FJ2 whole entry): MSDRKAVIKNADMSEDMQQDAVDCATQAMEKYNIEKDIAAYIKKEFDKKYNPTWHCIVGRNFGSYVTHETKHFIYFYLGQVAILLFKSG

| sequence coverage | unique peptide counts | Substance |
| --- | --- | --- |
| 0.03 | 3 | ISOFORM 1 OF MYOSIN IB. (from UniProt O43795 1-1136) |
| 0.19 | 3 | MYOSIN REGULATORY LIGHT CHAIN. (from UniProt O14950 2-172) |
| 0.24 | 14 | ISOFORM 1 OF HEAT SHOCK COGNATE 71 KDA PROTEIN. (from UniProt P11142 2-646) |
| 0.21 | 17 | ISOFORM 1 OF MYOSIN PHOSPHATASE RHO-… PROTEIN. (from UniProt Q6WCQ1 2-1025) |
| 0.19 | 6 | GUANINE NUCLEOTIDE-BINDING PROTEIN G. (from UniProt P08754 2-354) |
| 0.09 | 5 | STRESS-70 PROTEIN, MITOCHONDRIAL PRECURSOR. (from UniProt P38646 47-679) |
| 0.11 | 2 | PEROX1REDOXIN-1. (from UniProt Q06830 2-199) (enzyme) |
| 0.28 | 5 | MYOSIN, LIGHT CHAIN 6, ALKALI, SMOOTH MUSCLE AND NON-MUSCLE ISOFORM 1. |
| 0.03 | 7 | 285 KDA PROTEIN. (from UniProt Q13813 1-2472) |
| 0.64 | 5 | [..] LIGHT CHAIN 2, [..]. (from UniProt Q96FJ2 1-89) |
| 0.06 | 3 | ELONGATION FACTOR 1-ALPHA 2. (from UniProt Q05639 2-463) |
| 0.25 | 13 | CORONIN-1C. (from UniProt Q9ULV4 1-474) |
| 0.12 | 8 | HEAT SHOCK 70 KDA PROTEIN 6. (from UniProt P17066 1-643) |
| 0.19 | 5 | TROPOMYOSIN 1 ALPHA CHAIN ISOFORM 7. (from UniProt P09493 1-284) |
| 0.11 | 2 | ISOFORM SNAP-23A OF SYNAPTOSOMAL-ASSOCIATED PROTEIN 23. (from UniProt O00161 1-211) |
| 0.25 | 17 | HEAT SHOCK 70 KDA PROTEIN 1. (from UniProt P0DMV9 2-641) |

| sequence coverage | unique peptide counts | Substance |
| --- | --- | --- |
| 0.12 | 11 | ISOFORM 2 OF ANKYCORBIN. (from UniProt Q9P0K7 1-983) |
| 0.16 | 3 | RAS-RELATED PROTEIN RAB-35. (from UniProt Q15286 1-201) |
| 0.15 | 5 | GALPHAI2 PROTEIN. (from UniProt P04899 2-355) |
| 0.05 | 10 | FILAMIN 1. (from UniProt P21333 2-2647) |
| 0.02 | 2 | DESMOGLEIN 2 PREPROPROTEIN. (from UniProt Q14126 50-1118) |
| 0.64 | 5 | DYNEIN LIGHT CHAIN 1, CYTOPLASMIC. (from UniProt P63167 1-89) |
| 0.12 | 7 | HEAT SHOCK 70 KDA PROTEIN 1L. (from UniProt P34931 1-641) |
| 0.04 | 7 | ISOFORM 1 OF MYOSIN-10. (from UniProt P35580 1-1976) |
| 0.2 | 6 | type 1 protein phosphatase catalytic subunit PP1β (from UniProt P62140 1-327) (enzyme) |
| 0.18 | 6 | TROPOMYOSIN 4. (from UniProt P67936 2-248) |
| 0.22 | 5 | COMPLEMENT COMPONENT 1 Q SUBCOMPONENT-BINDING PROTEIN, MITOCHONDRIAL PRECURSOR. (from UniProt Q07021 74-282) |
| 0.01 | 2 | ISOFORM LONG OF SPECTRIN BETA CHAIN, BRAIN 1. (from UniProt Q01082 2-2364) |
| 0.06 | 2 | GUANINE NUCLEOTIDE-BINDING PROTEIN G(I)/G(S)/G(T) SUBUNIT BETA 2. (from UniProt P62879 2-340) |
| 0.02 | 2 | ALPHA-ACTININ-4. (from UniProt O43707 1-911) |
| 0.09 | 2 | PRKC APOPTOSIS WT1 REGULATOR PROTEIN. (from UniProt Q96IZ0 1-340) |
| 0.06 | 10 | MYOSIN-9. (from UniProt P35579 2-1960) |
